Assay [1] concerns the target T1, human EGFR.His antigen (Acro, Cat #EGR-H522a) (human, UniProt P00533 25-645).
T1 construct: extracellular domain; Bought protein; also called EGFR his tag protein; full-length EGFR extracellular domain protein; not shown: His tag
The experiment in a line: competition ELISA: EGFR his tag protein coated, antibody titrated together with Human EGF-mouse IgG2a Fc, bound EGF detected with HRP anti-mouse IgG, unit taken from the concentration axis (paragraph 62 says nM); OD450 falls only from about 2.4 to about 2.1-2.2 [table]. On the procedure:
(§1) Briefly, EGFR his tag protein was diluted with PBS to 2 μg/mL, and 100 μL of the antigen was added to each well of an ELISA plate and coated overnight at 4° C. The next day, the plates were washed twice with PBST (containing 0.5% TWEEN-20), and then blocked with 3% BSA at 37° C. for 1.5 h, followed by two washes with PBST. […] VHH-IgG4 antibodies were diluted to 2000 nM and then serially diluted 4-fold for 8 gradients. […] After washing 3 times, HRP goat anti-mouse IgG (Goat anti-Mouse IgG) (H+L) antibody (Abcam, cat #ab205719) diluted at 1:3000 was added to each well, and the plate was incubated at 37° C. for 40 min. The plates were then washed 3 times with PBST, and 100 μL of TMB substrate was added to each well and allowed to react for 3-5 min. The reaction was stopped by adding 100 μL of 3N hydrochloric acid per well. After stopping the reaction, the optical density at 450/650 nm was measured using a Tecan microplate reader. The dose-response curve was plotted, and the IC50 was calculated using GraphPad Prism 8.0 software.
Background: ELISA stands for enzyme-linked immunosorbent assay.

The target of assay [2] is T1, human EGFR.His antigen (Acro, Cat …). The experiment in a line: competition ELISA: EGFR his tag protein coated, antibody titrated together with Human EGF-mouse IgG2a Fc, bound EGF detected with HRP anti-mouse IgG, unit taken from the concentration axis (paragraph 62 says nM); OD450 falls only from about 2.4 to about 2.0-2.2 [table]. Here is the method:
as §1

B1: E005 VHH-IgG4 antibody (antibody, V domains shown)
VH: QVQLVESGGGLVQPGGSLRLSCEASGFAFSDYTMRWHRQAAGKELELVAYITSAGDIIKYANSVRGRFTISRDNAKNTLYLQMDSLKPEDTAVYRCNALVSASVRASDYWGQGTLVTVSS
notes: VHH fused to IgG4 (VHH-IgG4), expressed in ExpiCHO, protein A purified; not shown: human IgG4 constant part from the pCDNA3.4-IgG4 vector
Consider B1, for which the IC50 – broadly, the concentration needed to halve the response being measured – in assay [1] worked out at 0.033 µg/mL.

B2: E007 VHH-IgG4 antibody (antibody, V domains shown, not shown: a dimerising Fc or GST)
VH: EVQLVESGGGLVQPGGSLRLSCEASGFSFSDHTMRWHRQAAGKNLELVAYITPAGDIIKYADSVQGRFTISRDNAKNMLYLQMDSLRPDDTAVYRCNALVSAAVRASDYWGQGTQVTVSS
For B2, the IC50 in assay [2] worked out at 0.152 µg/mL.

(Values after patent US20250215092A1 (ZHEJIANG NANOMAB TECHNOLOGY CENTER, published 2025).)
